Values of other authors as cited in PMC5992718.
pKd: −log10 of the molar value.

Biological target: PD-L1 (Homo sapiens) (UniProt Q9NZQ7)
Sequence of UniProt Q9NZQ7 (Q9NZQ7 19-238): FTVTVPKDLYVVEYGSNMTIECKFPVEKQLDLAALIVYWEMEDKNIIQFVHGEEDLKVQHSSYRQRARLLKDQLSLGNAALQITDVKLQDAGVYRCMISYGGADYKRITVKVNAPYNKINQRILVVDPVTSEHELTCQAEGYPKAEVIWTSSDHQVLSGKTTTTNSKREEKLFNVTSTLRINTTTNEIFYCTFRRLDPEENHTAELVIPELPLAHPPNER

pKd: 4.53
Substance: PD-1 (from UniProt Q02242)
